{"source": "paper PMC4476257", "about": "(Molecular pharmaceutics, 2015)", "key": {"[1]": {"conditions": "toxin derivatives conjugated to pHLIP; cited from earlier work"}, "[2]": {"tested_on": "HeLa and MDA-MB-231 cells", "test": "Anti-proliferation assay, statements pooled over both cell lines", "assay_type": "cell-based, human", "conditions": "HeLa and MDA-MB-231 (Figures 3E, 3F), 2.5 µM, 2 h treatment, MTT after 72 h"}, "HeLa cells": {"tested_on": "HeLa cells", "test": "Anti-proliferation assay", "conditions": "5 µM, physiological pH, 2 h treatment, MTT after 72 h, Figures 3A and 3E"}, "MDA-MB-231 cells": {"tested_on": "MDA-MB-231 cells", "test": "Anti-proliferation assay", "assay_type": "cell-based, human", "conditions": "MDA-MB-231, 1.25 µM, 2 h treatment, MTT after 72 h; Figures 3B and 3D"}, "[3]": {"tested_on": "HeLa and MDA-MB-231 cells", "test": "Cell membrane integrity assay", "assay_type": "cell-based, human", "conditions": "HeLa and MDA-MB-231, 10 µM, 2 h, pH 7.4 or pH 5.0; mean, n=4; Figure 4"}, "[4]": {"conditions": "peptide:lipid 1:300, 7 µM, 25 °C, excitation 295 nm"}, "[5]": {"conditions": "pH 7.4 to pH 5.0, POPC liposomes, peptide:lipid 1:300, 7 µM, 25 °C"}}, "note": "Read-outs that look alike come from different tables or passages of the source. Bridge positions count the residues as written; N and C are the ends. Square brackets hold non-standard residues; d marks the D form. Ends that are not written are not given here. Peptide text beside a SMILES is read from it. I, II: the chains in the order shown. * marks the point of attachment. Dolaproine = CO[C@@H]([C@@H]1CCCN1)[C@@H](C)C(=O)O; Dil = CC[C@H](C)[C@H](NC)[C@@H](CC(=O)O)OC; X1 = C[C@@H](N*)[C@@H](O)c1ccccc1; NMeV = CN[C@H](C(=O)O)C(C)C; Mpa = O=C(O)CCS", "data": [{"compound": "amanitin", "values": [{"measurement": "pK of insertion", "setting": "[1]", "value": 5.9}]}, {"compound": "CC[C@H](C)[C@@H]([C@@H](CC(=O)N1CCC[C@H]1[C@H](OC)[C@@H](C)C(=O)N[C@H](C)[C@@H](O)c1ccccc1)OC)N(C)C(=O)[C@@H](NC(=O)[C@@H](NC)C(C)C)C(C)C", "note": "[MMAE, monomethyl auristatin E] (H-[NMeV]V[Dil][Dolaproine]-X1)", "values": [{"measurement": "cytotoxicity", "setting": "[2]", "value": "20–30%"}, {"measurement": "cytotoxicity", "setting": "HeLa cells", "value": "about 70%"}]}, {"compound": "I: GGEQNPIYWARYADWLFTTPLLLLELALLVDADEGTCG-NH2 / II: [Mpa][NMeV]V[Dil][Dolaproine]-X1 (disulfide I:37-II:1) [pHLIP(D25E)-MMAE]", "values": [{"measurement": "cell killing at 1.25 µM (percentage as printed)", "setting": "MDA-MB-231 cells", "value": 49, "unit": "%"}, {"measurement": "disruption of the plasma membrane (trypan blue uptake)", "setting": "[3]", "value": "neither conjugates, nor low pH treatment, caused disruption of the membranes"}, {"measurement": "Trp fluorescence emission maximum", "setting": "[4]; pH 5.0, POPC liposomes", "value": 329, "unit": "nm"}, {"measurement": "Trp fluorescence emission maximum", "setting": "[4]; pH 7.4, POPC liposomes", "value": 347, "unit": "nm"}, {"measurement": "pH-dependent secondary structure transition (CD)", "setting": "[5]", "value": "transition from an unstructured conformation to an α-helix"}]}]}
